# Laboratory results as given in US9394371 (Scripps Research, dated 2016).
# B1: 3B1 (antibody, V domains shown)
# VH: QVQLQESGPGLVKPSETLSLTCTVSGGSISSYYWSWIRQPPGKGLEWIGYIYYSGNTNSNPSLKSRVTISVDTSKNQFSLKLSSVTAADTAVYYCARTYYDSSGYYYRAFDIWGQGTMVTVSS
# VL: DIQMTQSPSSLSASEGDRVTITCRASQGIRNDLGWYQQKPGKAPKRLIYAASSLQSGVPLRFSGSGSGTEFTLTISSLQPEDFATYYCLQYNSYPWTFGQGTKVEIKR
# B2: AP1-15B4 (antibody, V domains shown)
# VH: EVHLVESGGDLVKPGGSLKLSCAASGFAFSDFAMSWVRQTPEKRLEWVAIIKSDDSYTYYPDSVRDRFTISRDNARNTLYLQMTSLRSEDTALYYCTKIYDAYFYAMDYWGQGTSVTVSS
# VL: DIVRTQSPLSLSVSLGDQASISCRSSQSLLHSNGNTYLHWYLQKPGQSPKLLIYKVSNRFSGVPDRFSGSGSGTDFTLKISILEAEDLGIYFCSQSTHFPTFGGGTKLEIK
# notes: also called mAb AP1-15B4; AP1 Sups 15B4
# Columns and labels:
# [1] = biological target: AIP-1 (S. aureus I native cyclic signaling peptide) (Staphylococcus aureus); experiment: competition ELISA on AP1-BSA
# [2] = biological target: T1, AIP-3 (S. aureus III native cyclic signaling peptide) (Staphylococcus aureus); experiment: competition ELISA on AP1-BSA
# T1 construct: also called AIP3 wt; AIP-III
Binder,Kd [1],Kd [2]
B1,~6 µM,
B2,,~1 µM
